Assay: yeast display, Sf9 membrane polyspecificity reagent, FACS + sequencing; frameworks hold sequencing errors
Procedure, shortened: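 In a synthetic yeast display library (Saccharomyces cerevisiae BJ5465), nanobody expression was induced with galactose for 36–48 hours. FACS gates were set low and high (top ~1%) using anti-HA fluorescence for expression and streptavidin fluorescence for binding of the Sf9 membrane reagent. Each polyreactivity label is drawn from the gate of origin.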

QVQLVESGGGLVQAGGSLRLSCAASGRIFRYNAMGWYRQAPGKERELVATISKSGGSTYYADSVKGRFTISRDNANYTVYLQMNSLKPEDTAVYYCAASYHPWLADYGYWGQGTQVSVSS
polyreactivity (PSR sort gate): low polyreactivity

QVQLVESGGGLVQAGGSLRLSCAASGRIFRYNAMVWYRQAPGKERELVAAITWSGTSTYYADSLKGRFTLSRDNAKNTVYLHMNSLKPEDTAVYYCNADRVDRELFTFDYWGQGTQVTVSS
polyreactivity (PSR sort gate): high polyreactivity

QVQLVESGGGLVQAGGSLRLSCAASGRIFRYYAMGWYRPATGKERELVAGITRGGTTNYSDSVKGRFTISRDNAKNTVYLQMNSLKPEDTAVYYCAADTRRGIIGYDYWGQGTQVTVSS
polyreactivity (PSR sort gate): high polyreactivity

QVQLVESGGGLVQAGGSLRLSCAASGRIFRYYAMGWYRQAAGKERELVAAIRYRSGGTSYADSVKGRFTISRDNAKNTVYLQMNSLKPEDTAVYYCNADKRLRGHGYDYWGQGTQVTVSS
polyreactivity (PSR sort gate): high polyreactivity

QVQLVESGGGLVQAGGSLRLSCAASGRIFRYYAMGWYRQAPGKEREFVAAISSNTGTGTYYADSVKGRFTISRDNAKNTVYLQMNSLKPEDTAVYYCNAKYKYRGYYWGQGTQVTVSS
polyreactivity (PSR sort gate): high polyreactivity

QVQLVESGGGLVQAGGSLRLSCAASGRIFRYYAMGWYRQAPGKERELDAGITGRGGRTYYADSVKGRFTISRDNAKNTVYLQMNSLKPEDTAVYYCAATVSPSYDYWGQGTQVTVSS
polyreactivity (PSR sort gate): high polyreactivity

QVQLVESGGGLVQAGGSLRLSCAASGRIFRYYAMGWYRQAPGKERELVAAIDSVGSTYYADSVKGRFTISRDNAKNTVYLQMNSLKPEDTAVYYCNARVYTFPTRYDYWGQGTQVTVSS
polyreactivity (PSR sort gate): high polyreactivity

QVQLVESGGGLVQAGGSLRLSCAASGRIFRYYAMGWYRQAPGKERELVAAIRIRGGSTSYADSVKGRFTISRDNAKNTVYLQMNSLKPEDTAVYYCNKRDKVTYSYDYWGQGTQVTVSS
polyreactivity (PSR sort gate): high polyreactivity

QVQLVESGGGLVQAGGSLRLSCAASGRIFRYYAMGWYRQAPGKERELVAAISGNGGRTSYADSVKGRFTISRDTAKNTVYLQMNSLNPEDTAVYYCAKYPVQSDYLFDHWGQGTQVTVSS
polyreactivity (PSR sort gate): high polyreactivity

QVQLVESGGGLVQAGGSLRLSCAASGRIFRYYAMGWYRQAPGKERELVAAISTAGSTYYADSVMGRFTISRDNAKNTVYLQMNSLKPEDTAVYFCAARTYRSVYGPEYGYWGQGTQVTVSS
polyreactivity (PSR sort gate): high polyreactivity

QVQLVESGGGLVQAGGSLRLSCAASGRIFRYYAMGWYRQAPGKERELVAAITKNGGSTYYADSVKRRFTISRDNAKNTVYLQMNSLKPEDTAVYYCAAARLGNYDYWGQGTQVTVSS
polyreactivity (PSR sort gate): high polyreactivity

QVQLVESGGGLVQAGGSLRLSCAASGRIFRYYAMGWYRQAPGKERELVAAITRGGRTNYADSVKGRFTISRDNAKNTVYLQMNSLKQEDTAFYYCAARNVFQSVHVRGGYWGQGTQVTVSS
polyreactivity (PSR sort gate): high polyreactivity

QVQLVESGGGLVQAGGSLRLSCAASGRIFRYYAMGWYRQAPGKERELVAAITWRGSSTYYADSVKGRFTISRDNAKNTVYLQMNSLKPEDTAVYYCNKLRSPHGYIRPGYDYWGQGTQVTVSS
polyreactivity (PSR sort gate): high polyreactivity

QVQLVESGGGLVQAGGSLRLSCAASGRIFRYYAMGWYRQAPGKERELVARITNGAITNYADSVKGRFTISRDNAKNTVYLQMNSLKPEDTAVYYCAADPWYTLSVPSGYDYWGQGTQVTVSS
polyreactivity (PSR sort gate): high polyreactivity

QVQLVESGGGLVQAGGSLRLSCAASGRIFRYYAMGWYRQAPGKERELVASITRRGGSTYYADSVKGRFTISRDNAKNTVYLQMNSLKPEDTAVYYCVGDTYYNLGNYWGQGTQVTVSS
polyreactivity (PSR sort gate): high polyreactivity

QVQLVESGGGLVQAGGSLRLSCAASGRIFRYYAMGWYRQAPGKERELVATISSSGGSTYYADSVKGRFTISRDNAKNTVYLQMNSLKPEDTAVYYCAADWYGYRQFHGYYWGQGTQVTVSS
polyreactivity (PSR sort gate): high polyreactivity

QVQLVESGGGLVQAGGSLRLSCAASGRIFRYYAMGWYRQEPGKERELVAVITRGTSTKYADSVKGRFTISRDNAKITVYLQMNSLKPEDTAVYYCAADYWYANVGFDYWGQGTQVTVSS
polyreactivity (PSR sort gate): high polyreactivity

QVQLVESGGGLVQAGGSLRLSCAASGRIFRYYDMGWYRPAPGTERELVAAITSDGSTKYADSVKGRFTISRDNAKNTVYLQMNSLKPEDTAVYYCNAEVLPTWYSPQLDYWGQGTQVTVSS
polyreactivity (PSR sort gate): low polyreactivity

QVQLVESGGGLVQAGGSLRLSCAASGRIFRYYSMGWYRQAPGKERELVAAISRSGSTNYADSVKGRFTISRDNAKNTVYFQMNSLKPEDTAVYYCAADSNYLYFWRRYKRMDYWGQGTQVTVSS
polyreactivity (PSR sort gate): high polyreactivity

QVQLVESGGGLVQAGGSLRLSCAASGRIFRYYTMGWYRQAPGKEREFVAAITLSGGRTYYADSVKGRFTISRDNAKNTVYLQMNSLKPEDTAVYYCAAYDRITRYDYWGQGTQVTVSS
polyreactivity (PSR sort gate): high polyreactivity

QVQLVESGGGLVQAGGSLRLSCAASGRIFRYYTMGWYRQAPGKERELVATISWNGSNTYYADSVKGRFTISRDNAKNTVYLQMNSLKPEDTAVYYCAAGVLPGLYNGARLFDYWGHGTQVTVSS
polyreactivity (PSR sort gate): low polyreactivity

QVQLVESGGGLVQAGGSLRLSCAASGRIFSAYAMGWYRQAPGKEREFVAAITQSGGSTYYADSVKGRFTISRDNAKNTVYVQMNSLKPEDTAVYYCAAGDAYYTEALPFGEYDYWGQGTQVTVSS
polyreactivity (PSR sort gate): low polyreactivity

QVQLVESGGGLVQAGGSLRLSCAASGRIFSEYAMGGDRQAPGKERELVATITSGDSTIYADSVKGRFTISRDNAKNTVYVQMNSLKPDDTAVYYCNPDRFADYDYWGHGTQVTVSS
polyreactivity (PSR sort gate): low polyreactivity

QVQLVESGGGLVQAGGSLRLSCAASGRIFSFYTMGWYRQAPGKERELVAAITWSGGSTYYADSVKGRFTISRDNAKNTVYLQMNSLKPEDTAVYYCAADFYLGPTWYYYWGQGTQVTVSS
polyreactivity (PSR sort gate): high polyreactivity

QVQLVESGGGLVQAGGSLRLSCAASGRIFSGNAMGWYRQAPGKERELVAAISWGGGRTYYADSVKGRFTISRDNAKNTVYLQMNSLKPEDTAVFYCNTVRQRARFTKVDYWGQGTQVTVSS
polyreactivity (PSR sort gate): high polyreactivity

QVQLVESGGGLVQAGGSLRLSCAASGRIFSGNGMGWYRQATGKERELVASITWSGTSTYYADSVKGGFTISRDNAKNTVYLQMNSLKPEDTAVYYCNTRTSRRIWYSKSGKRYDYWGQGTQVTVSS
polyreactivity (PSR sort gate): high polyreactivity

QVQLVESGGGLVQAGGSLRLSCAASGRIFSGYALGWYRQAPGKERELVAAISQRGGSTTYADSVKGRFTISRDNAKNTVYLQMNSLKPEDTAVYYCAKRYTYPSGYDYWGQGTEVTVSS
polyreactivity (PSR sort gate): low polyreactivity

QVQLVESGGGLVQAGGSLRLSCAASGRIFSGYAMGCYRQAPGKERELVAAITSRSGSTYYADSVKGRFTISRDNAKKTVYLQMNSLKPEDTAVYYCAAEYVRFYWYTSDYWGQGTQVTVSS
polyreactivity (PSR sort gate): low polyreactivity

QVQLVESGGGLVQAGGSLRLSCAASGRIFSGYAMGSYRQAPGKERELVAAITSVGSTNYADSVKGLFTISRDNAKNTVYLQMNSLKPEDTAVFNCAAKRYRPKYEYYYWGLGTQVTVSS
polyreactivity (PSR sort gate): high polyreactivity

QVQLVESGGGLVQAGGSLRLSCAASGRIFSGYAMGWYRQAPGKERELVAAITSRSGSTYYADSVKGRFTISRDNAKNTVYFQMNSLKPEDTAVYYCAAEYVRFYWYTSDYWGQGTQVTVSS
polyreactivity (PSR sort gate): low polyreactivity

QVQLVESGGGLVQAGGSLRLSCAASGRIFSGYAMGWYRQAPGKERELVAAITSVGSTNYADSVKGRFTISRDNAKNTVYLQMNSLKPEDTAVYYCARYSYRGTNVRYDYWGQGTQVTVSS
polyreactivity (PSR sort gate): high polyreactivity

QVQLVESGGGLVQAGGSLRLSCAASGRIFSHNAMGWYRQAPGKERELVAAISRSGGRTYYADSVKGRFTISRYNAKNTVYVQMKSLKPEDTAVYYCAADYRLKKSPGYSGEDDYWGQGTQVTVSS
polyreactivity (PSR sort gate): high polyreactivity

From the nanobody polyreactivity screen of Harvey et al. (2022)
